In publication PMC5075775 one finds binding signal and Kd data, which are given here for 21 sequences.

Broadly, the Kd is a measure of binding affinity in units of concentration.

Series [1] deals with monoclonal anti-dsDNA antibody HYB 331-01, clone 35I9. The experiment in a line: ELISA. To be noted: SPR: Biacore X100, SA chip, immobilisation in HBS-EP+ (0.1 M HEPES, 1.5 M NaCl, 30 mM EDTA, 0.5% P20), 37 C, ELISA: antigens coated in PBS, diluent PBS ….
In series [2] the test system is monoclonal anti-DNA antibody ED-10. In words: SPR. The note with it: SPR: Biacore X100, SA chip, immobilisation in HBS-EP+ (0.1 M HEPES, 1.5 M NaCl, 30 mM EDTA, 0.5% P20), 37 C, ELISA: antigens coated in PBS, diluent PBS ….

Consider “TCCTCTCTTTCTCTTTCTCTT (double strand) [D21]”, for which, in series [1] (LNA at 11, 13 of strand 1), the binding signal came to 0.77 A450.

Consider “TCCTCTCTTTCTCTTTCTCTT (double strand) [SEQ4 biotinylated LNA/DNA duplex (SPR)]”, for which the Kd in series [2] (ka 1.009e8, kd 7.860e-1, text also claims higher binding of SEQ4, LNA at 4, 10, 13, 19 of strand 1 by plus signs (Table 1 lists 4, 10, 14, 19)) worked out at 779 nM. In the case of “TCCTCTCTTTCTCTTTCTCTT (double strand) [SEQ5 biotinylated duplex (SPR)]”, the Kd in series [2] (ka 3.341e3, kd 3.531e-4) is 106 nM. Consider “CCACACCCACACCCCCACCCA (double strand) [D12 (CA)]”, for which, in series [1], the binding signal came out at 0.78 A450. “TCCTCTCTTTCTCTTTCTCTT (double strand) [D19 (LNA pattern of SEQ1)]” registered a binding signal in series [1] (LNA at 4, 13, 19 of strand 1) of 1.12 A450. For the sequence “TTATATTTATATTTATATAAT (double strand) [D6 (AT)]”, in series [1], the binding signal is 1 A450. “TCCTCTCTTTCTCTTTCTCTT (double strand) [D1 (SEQ5)]” gave a binding signal in series [1] of 1.41 A450. In series [1], “TAATATATTTATATTTATATT (double strand) [D2 (TA)]” yielded a binding signal of 1.11 A450.

Consider “AGGGAGGGGGAGAGGGAGAGG (double strand) [D11 (AG)]”, for which the binding signal in series [1] was 0.78 A450.

As for “GGAGAGGGAGAGGGGGAGGGA (double strand) [D13 (GA)]”, the binding signal in series [1] stood at 0.89 A450. “TGAACTCTATGTCTGTATCAT (double strand) [D14 (ATCG mixmer, SEQ7)]”: in series [1], the binding signal came out at 1.55 A450. Take “TCCTCTCTTTCTCTTTCTCTT (double strand) [D20]”: the binding signal in series [1] (LNA at 1, 4 of strand 1) came to 0.89 A450. In series [1], “ATTTATTTTTATATTTATATT (double strand) [D8 (AT, SEQ6)]” registered a binding signal of 1.27 A450. For “ATTTATTTTT (double strand) [D16 (AT 10mer)]”, in series [1], the binding signal was 0.76 A450. As for “TCCTCTCTTTCTCTTTCTCTTTCCTCTCTTTCTCTTTCTCTTTCCTCTCTTTCTCTTTCTCTT (double strand) [D17 (TC 63mer)]”, the binding signal in series [1] is 1.5 A450. In series [1], “TGGTGTGTTTGTGTTTGTGTT (double strand) [D3 (TG)]” came in with a binding signal of 1.13 A450. For “ATTTATTTTTATATTTATATTATTTATTTTTATATTTATATTATTTATTTTTATATTTATATT (double strand) [D18 (AT 63mer)]”, the binding signal in series [1] amounted to 1.44 A450. “TCCTCTCTTTCTCTTTCTCTT (double strand) [D22]”: the binding signal in series [1] (LNA at 4 of strand 1) is 0.56 A450. “TTCTCTTTCTCTTTCTCTCCT (double strand) [D5 (CT)]” displayed a binding signal in series [1] of 0.98 A450.

“TTGTGTTTGTGTTTGTGTGGT (double strand) [D7 (GT)]” gave a binding signal in series [1] of 1.87 A450.

The sequence “TCCTCTCTTT (double strand) [D15 (TC 10mer)]” yielded a binding signal in series [1] of 0.9 A450.
